The text below walks through data of patent publication US8029979B2, “Method for determining the substrate specificity of an enzyme” (JPT Peptide Technologies GmbH, priority 2001, dated 2011).

BA1 = not defined here

Type in all cases: biochemical
For experiment [1], the target named is T1, protein kinase A (Bos taurus, UniProt P00517).
T1 construct: purchased Sigma P26452 as printed
In words: Incubation of modified glass surface with protein kinase A under cover glass (FIG. 5, Example 26). To be noted: protein kinase A 10 U/mL, 30 min at 25° C. Here is the method: (§1) FIG. 3. The peptide Leu-Arg-Arg-Ala-Ser-Leu-Gly-NH2, modified at the N-terminus with the dipeptide cysteinyl-β-alanine, was coupled to maleinimido-functionalised surfaces by a Michael addition (maleinimido-functionalised glass surface, Sigma, Silane-Prep™, S4651; as well as maleinimidobutyryl-β-alanine-functionalised, modified polypropylene membranes). The modified glass surfaces were first pre-incubated for 10 minutes using 20 mL of 100 μM ATP solution in 50 mM of sodium phosphate buffer pH 7.5. […] (Example 31). The phosphorylation of the corresponding peptides was detected using a FUJIFILM PhosphorImager. The signal intensity of the respective spot is given below the figures. […] FIG. 4. The control peptide Leu-Arg-Arg-Ala-Ala-Leu-Gly-NH2, the peptide Leu-Arg-Arg-Ala-Ala-Leu-Gly-NH2 and the synthesis raw product Leu-Arg-Arg-Ala-Ala-Leu-Gly-NH2, each modified at the N-terminus with the dipeptide cysteinyl-β-alanine, were coupled to a maleinimido-functionalised glass surface by a Michael addition (Example 1). […] After incubation for 30 min at 25° C. the phosphorylation of the corresponding peptides was detected using a FUJIFILM PhosphorImager. […] After incubation for 30 min at 25° C. the phosphorylation of the corresponding peptides was detected using a FUJIFILM PhosphorImager. […]

For experiment [2], the target named is T1, protein kinase A. Description: Incubation of modified glass surface with different concentrations of protein kinase A (FIG. 4, Example 25). To be noted: protein kinase A 1 U/mL or 10 U/mL, 30 min at 25° C. Here is the method: as §1, with “4.” for “4. The control peptide Leu-Arg-Arg-Ala-Ala-Leu-Gly-NH2, the peptide Leu-Arg-Arg-Ala-Ala-Leu-Gly-NH2 and the synthesis raw product Leu-Arg-Arg-Ala-Ala-Leu-Gly-NH2, each modified at the N-terminus with the dipeptide cysteinyl-β-alanine, were coupled to a maleinimido-functionalised glass surface by a Michael addition (Example 1).”
After drying the glass surface the quantity of radioactive phosphate incorporated in the glass-surface-bound peptides was determined using a PhosphorImager system (FLA-3000, FUJIFILM) (see FIG. 4).

Experiment [3] has as its target T1, protein kinase A. In words: Time-dependent incubation of various modified surfaces with protein kinase A (FIG. 3, Example 31). The note with it: protein kinase A 2 U/mL, incubated for the given time at 25° C. As to the method:
as §1, with “4.” for “4. The control peptide Leu-Arg-Arg-Ala-Ala-Leu-Gly-NH2, the peptide Leu-Arg-Arg-Ala-Ala-Leu-Gly-NH2 and the synthesis raw product Leu-Arg-Arg-Ala-Ala-Leu-Gly-NH2, each modified at the N-terminus with the dipeptide cysteinyl-β-alanine, were coupled to a maleinimido-functionalised glass surface by a Michael addition (Example 1).”
After drying the glass surface the quantity of radioactive phosphate incorporated in the glass-surface-bound peptides was determined using a PhosphorImager system (FLA-3000, FUJIFILM) (see FIG. 3).

In the case of “Cys-BA1-Leu-Arg-Arg-Ala-Ser-Leu-Gly-NH2 ({Cys-BA1}-LRRASLG-NH2; reading uncertain; also: printed as Cys-BA1-Leu-Arg-Arg-Ala-Ser-Leu-Gly-NH2) [compound 85]”, the “signal intensity for the substrate amino acid sequence higher than that for the control product” value with protein kinase A [1] is reported as 800%. In the experiment with protein kinase A [2], the “signal intensity for the purified amino acid sequence higher than that for the corresponding control amino acid sequence” value is listed as “approximately 300 times” and the “signal intensity for the purified amino acid sequence higher than that for the synthesis product” value is 500%. For the same substance, in the experiment with protein kinase A [3] (modified glass surfaces), the “kinase-mediated incorporation of radioactivity into the substrate amino acid sequence” value is listed as “clear time dependence”. In the experiment with protein kinase A [3] (modified polypropylene surfaces), the “kinase-mediated phosphorylation signal on polypropylene” value was “only non-specific binding of ATP or kinase to the peptides is measured”.
